Measured values from the domain aggregation screens of Martell et al. (2025).

Assay: soluble fraction after stress (log2 fold change); higher = more stays soluble; pooled small domains, quantitative proteomics
Settings: stress: pH 4
Outline: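 Custom libraries of small protein domains were pooled and measured with high-throughput quantitative proteomics after pH 4 stress. The read-out is the fold change in the amount of each domain that stays soluble after the acid stress, taken as a measure of aggregation propensity. Fold changes are on a log2 scale, and higher values mean more of the domain stayed soluble.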

Sequence	soluble fraction (log2)
HMEFTFTLPRGYIDDTGMIHREGTMRLANAADEILPLKDPRVQQNPGYLTIILLARVITKLGSL	-0.165
HMETLKINTHLGTLNLKKRGKKGTWQINIYFKNIEGDNHYRQSTGTNQLELAKAKAMNMITTEYSNRLAGI	-0.259
HMTEKIEWYKEVLELEPNSKVFFPLARMLAEEQRFDEAVAVLEHGLERHGEFLEARLFFIELLHET	-2.04
HMGVAAEDPDEAEKGAHSLKSSAANVGAEVVRGLAGEIESAASSGDVEAVRTILPGLEDAYSQAITDLET	0.133
HMGDADDLTRIKGIGPKLSKTLNELGIYHFRQIAGWQSDEADWVDDYLSFKGRVMREQWIEQAQKFAS	-0.292
HMANKTVPNVSGKTVAEARAIIENQSLQVGEEKEEYSDSVAEGYIIRTNPTAGSQKKEQSKIDLVVSKG	-0.211
HMKDLTAIKGVGEFFAKKLSQAGYQSITNLTDVNAKRLQADTGIPLPIAARIIKEAQSLIAET	-0.00834
HMTSAIAEGTVIRLTQSTNIRESMSEDAPKVATAFSGEKVTVIMSYAEGWTKVTYGDKTGYIKTELL	-0.443
HMAVGVFQKEDGYWGYRFSIIVDGKTIARRKFTDENGSKLRTKSEAVKARAAAMVAARMERVS	0.24
HMNEAVVVPDVKGLTLDEADEFFKNSKLRYNVVDSVFSKDVAPGAIVELVPVAGSKVKENRIVFVTINAQ	-0.517
HMTGMDALIGRRVFVSEEILPGDAGGRVAVDGDSWRAISVGTAKPIPAGTEVRIHGYKSLILEVEPI	0.0974
HMQVSITGYLGGEKIGLFDDAKFKALAAKQGIAIDYRKAGSPAMMDADRKGMDYLFPSSRAAVEYGNAKGV	0.144
HMNTYEIIGGDNRARGPVTGEELSQWIREGRASGHTMARVSDGEHWQPLGSFPEFVGPLQGLPW	-0.163
HMEKKEWVIYITGAVKKPGVYRIPEGARVYQALEAAGGFTPEADRDAVNLAAMLQDGAHIKFPAVGEEV	0.0865
HMGTTTPPATRKGKVTSSFLNVRSGPSTANAKVAELKQNAVVTIYETSSNGWHRIGVNQWVIGTNIQE	-0.121
HMHVGVWIMNEKGEILLEQRASNKKVDPNKWARIGGHVDAGEKPIQAIQREILEEIGVKIPLENFIVLET	-0.592
HMYSSIIGIAFTRAENKPAAPTGGSYSNPHPVDGNWKAAPYDGDGNLWYSIRHFNENVDIQDREWSDPTLG	0.0834
HMVLELRIGQIVRGVLLQLVGEREGIVSVGGVPVRARLEAEIPLGRGVMLQVQPGSDANNILLKPV	-0.139
HMKNMSLGERIKEQRKSSGLSQEKVAEFVGVSRQAVTKWETGQSAPSTENLFKLAEIFGTTVDILLA	-0.0228
HMIHQIPVNVQKIRQIIGINLNENDYLNYLAKLGFVIDEGLIIVPSFRSDVKTQNDLAEEIARV	-0.236
HMVRTIKILGIKHNINLYYKNVKVPTMNVKNQTLEIILPNKYKKFQEEQILKVLTQKLYDKIAETEIEKIK	≥ 0.43
HMGNVGEAIEALVKGFQEGNQFQTLLGVTGSGKTFTMANVIAALNKPTLIISHNKTLAAQLYLSLIHIS	-0.255
HMSTMTDAQRHLFANKLSQLPEMGKYSHGTESYQQFAVRIAEMLQTPKKFKELYPYLQKVGFKA	0.0225
HMANYTVNAYNNGGTGGSVNMRSGPSTNDGIVVRVPHGATVTGTKSGTWSYMTYNTYTGYMMSVYLDEQS	-0.0556
HMHEHWDGSGFPKHLRGANIPLGARVIAVADTYDSITSSRAYRAGSTHEAAEREMRRVSGTQLDPE	0.0226
HMLIDQYPYSIIYRLIPHGRSNAVPAAQIVGLTKLDERSIRIYVEAMRREGHIIASSSKGYYFPASIEE	-0.589
HMGDAPLITVDKRTIKVNGAKAQIQVYDTTGRLVKNVSPAGKLTLIEMAKPGIFIVHTQSMSFKVVL	0.00664
HMQEPVYRPVFPGMTDADRQSAMEALKEGGFSPRLNRQTGQLEVDASGYHEAKIYLASQGIPAE	0.22
HMDDHKQHLIDFYHSRKRMPTYTEMMALFGYKSKNAVARLVEKMIDAGIVTKDKLGKLLPTTLFDSVPL	-0.0996
HMFDFLELGQAIQDAREKQRITREELAEELGISARHLQSVEKEGQYPSFRLFIQLVTMFHISVDQYI	-0.586
